From US20190359711A1
pKd: −log10 of the molar value.

Target: CD3 on human pan T cells (human) (UniProt P07766)
Experiment: flow cytometry, saturation binding on human pan T cells (KdT)

Sequence of CD3 on human pan T cells (human) (P07766 23-207 limits assumed): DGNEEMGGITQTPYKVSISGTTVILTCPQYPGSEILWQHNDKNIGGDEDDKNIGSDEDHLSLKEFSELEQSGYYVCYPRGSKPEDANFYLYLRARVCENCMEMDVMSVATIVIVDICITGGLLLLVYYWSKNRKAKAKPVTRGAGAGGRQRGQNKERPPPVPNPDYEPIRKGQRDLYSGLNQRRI

pKd: 8.25
Substance: AlexaFluor488 SP34-2 anti-CD3 (antibody)
